Assay results as given in the nanobody polyreactivity screen of Harvey et al. (2022).

Test: yeast display, Sf9 membrane polyspecificity reagent, FACS + sequencing; frameworks hold sequencing errors
How it was run: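 Synthetic nanobody libraries on Saccharomyces cerevisiae BJ5465 were galactose-induced for 36–48 hours, stained 1 hour at 4 °C with 10% biotinylated, detergent-solubilized Sf9 membrane reagent and enriched on streptavidin microbeads. FACS then separated cells into low and high (top ~1%) gates by anti-HA (expression) and streptavidin (reagent binding) fluorescence. Genes were colony-PCR amplified, MiSeq 2 × 250 sequenced and CDR-length filtered. A clone's polyreactivity label is that of its gate of origin.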

| Sequence | polyreactivity (PSR sort gate) |
| --- | --- |
| QVQLVESGGGLVQAGGSLGISCAACGSIFSVNAMGWFRQAPGKERELVAGITISGGRTYYADSVKGRFTISRDNAKNTVYLQKNSLKPEDTAVYYCAAYVDPAYYYWGPGTQVTVSS | low polyreactivity |
| QVQLVESGGGLVQAGGSLRLSCAASGRTFHKYAMGWLRQAPGKERELVAAITGSGVRTYYADSVKGRFTISRDNAKNTVYLQMNSLKPEDTAVYYCNADSYNRNGDYWGQGTQVTVSS | high polyreactivity |
| QVQLVESGGGLVQAGGILRLSCAASGSIFDVYAMGWYRQAPGKERELVAAISRSGGRTYYADSVKGRFTISRDNAKNRVYLQMNSLKPEDTAVYYCATYPCNWDLDYWGHGTQVTVSS | high polyreactivity |
| QVQLVESGGGLVQAGGSLRLSCAASGSTFVPNAMGWYRQAPGTERELVAAITVDGDDTYYADSVKGRFTISRDNAKNTVYFQMNSLKPEVTAVYYCKADPDVPFFSWLTGRGTYDYWGQGTQVTVSS | low polyreactivity |
| QVQLVESGGGLVQAGGRLRLSCAATGSTFEVYAMGWYRQAPGKERELVAVINVSDGSTYYADSVKGRFTISRDNAKNTVYLQMNSLKPEDTAVYLCAAYLYNRPYQLTGYYDGYGYWGQGTQVTVSS | low polyreactivity |
| QVQLVESGGGLVQAGGSLRLSCAASGFTFYTYTMGWYRQAPGKERELVAVISRSGGSTYYADSVKGLFTISRDNAKNTVYLQMNSLNPEDTAVYYCNAGYWRFIDSFDYWGQRTQVTVSS | high polyreactivity |
| QVQLVESGGGLVQAGGSLRLSCAASGSTFGSYAMGWYRQAPGKERELVAAITASGGSTYYADSVKGRFTISRDNAKNTGYLQMNSLKPEDTAVYYCATRWFAFPWDEYNYWGQGTQVTVSS | low polyreactivity |
| QVHLVESGGGLVQAGGSLRLSCAACGRTFRSNALGWYSQAPGTEREFVAALSGRGGITYFADSVTGRFSISRDNAKNTVYLQMNSLKPEDTAVDYCNRDVKFHDYVYVTGINSPGYNYWGQGTQVTVSS | low polyreactivity |
| QVQLVESGGGLVQAGGSLRISCAASGSIFRNYAMGWYRQAPGKERELVAAISRNGGTTYYADSVKGRFTISRDNAKNTVYLQMNSLKPEDTAVYYCARLYYTQKDSKTGYGYWGQGTQVTVSS | high polyreactivity |
| QVQLVESGGCLVQAGGSLRLSCAASGSTFWGYTMGWYRQAPGKVRELVAAISSDGSTNYADSVKGRFTISRDNAKNTVYLQMNSLKPEDTAVYDCNTVYDPDTGQSDSWGQGTQVTVSS | low polyreactivity |
| QVQLVESGGGIVQAGGSLRLSCAASGRSFYRYARGWDRQAPGKERELVASITRSGITHYADSVKGRFTISRDNAKNPVYLQMISLKPEDTAVYYCNGRRGSPAPYDYWGQGTQVTVSS | high polyreactivity |
| QVQLVESGGGLVQAGGSLRLSCAASGSIFPQYAMGWYRQAPGKERELVAAITWSGSRTRYADSVKGRFTISRDNAKNTVYLQMNSLKPEDTAVYYCNAVNYRSSRDSGYWGQGTQVTVSS | high polyreactivity |
| QVQLVESGGGLVQAGGSLRLSCAASGSIFRPNTMGWYRQAPGKERELVAAIRAGGRTYYADSVKGRFTISRDNAKNTVYLQMNSLKPEDTAVYYCNAVPASASTWRGQVGYDYWGQGTQVTVSS | high polyreactivity |
| QVQLVESGGGLVQAGGSLRLSCAASGRTLDSNAMGWYRQAPGKERDLVATISKRGGNTYYADSVKGRFTISRDNAKNTVYLQMNSLKPEDTAVYYCAKDVPPEYPTSSYDYWGQGTQVTVSS | low polyreactivity |
| QVQLVESGGGLVQAGGSLRLSCAASGITLYEYAMGWYRQAPGKERELVAAMSTSGGRTRYADSVKGRFTISRDNAKNTVYLQMNSLKPEDTAVYYCNRLYGPGFKSVYGYDYWGQGTQVTVSS | high polyreactivity |
| QVQLVDSGGGLVHAGGSLRLSCAASGRTFFINTMGWYRQPPGKEREFVAAITWSAGRTYYADSVKGRITISRDNAKNTVYLQMISLKPEDTAVYYCAAALDGHTFPFYYWGQGTQVTVSS | low polyreactivity |
| QVQLVESGGGLVQAGGILRLTCAASGRTFYKNAMGWYRQAPGKERELVAAIDWIDGNTYYADSVKGRFTISRDNAKNTVYLQMNSLKPEDTAVYYCAAEGYDLGDYWGQGTQVTVSS | low polyreactivity |
| QVQLVESGGGLVQAGGSLSLSFAASGRTFARYAMGWYRQAPGKEREFVAGINWSGGGTYYADSVKGRFTISRDNAKNTVYLQMNSLKTEDTAVYYCAAVPTNRYGYWGQGTQVTVSS | high polyreactivity |
| QVQLVESGGGLVQAGGSLRLSCAASGLTFYTYPMGWYRQAPGKERELVAAISSGGSTNYADSVKGRFTISRDNAKNTVYLQMNSLTPEDTAVYYCAADPSYFTYFSFDLSESDYWGKGTQVTVSS | low polyreactivity |
| QVQHVESGGGLVQAGGSLRLSCAASGSIFRRYTMGWYRQAPGKERELVAAISRVGNTNYADSVKGRFTISRDNAKNTVYLQMNSLKPEDTAVYYCAARAIGYRYTPGLNYWGQGTQVTVSS | high polyreactivity |
| QVQLVESGGGLVQAGGSLRLSCAASGFTFSSNAMGWSRPAPGKERELVAGITWSGGSTYYADSVKGRFTISRDNAKNTVYLQMNRLKPEDTAVYYCNFRYNASQYDYVYWGQGTQVTVSS | low polyreactivity |
| QVQLVESGGGLVQAGGSLRLSCAASGSTFPSYAMGWSRQAPGKERELVAAISRSGGSTYYADSVKGRFTISRDNAKNTVYLQMISLKPEDTAVYYCAARGHLRYESDYWGQGTQVTVSS | high polyreactivity |

| Sequence | polyreactivity (PSR sort gate) |
| --- | --- |
| QVQLVESGGGLVQAGGSLRLSCAASGFTFWDYDLGWSRQATGKERELVAAISDNDGSTDYADSVKGRITISRDNVKNTVFLQMNRLKPEESAVYYCNAEIEMPSKEGDYWGLGTQVTVSS | low polyreactivity |
| QVQLEESGGGLVQAGGSLRLSCAASGIIFWYYAMGWSRQAPGKERELVAAINSGDSTNYADSVKGRYTISRDNAKNTVYLQMNSLKPEDTAVYYCATVSSYTGGYWGQGTQVTVSS | low polyreactivity |
| QVQLVESGGCLVQAGGSLRLISAASGSTFQRYAIGWYRQAPGKERELVAAITWSNGSTYYADSVKGRFTISRDNAKNTVYLQMISLKPEDTAVYYCAAEVHFGGDYWGQGTQVTVSS | low polyreactivity |
| QGQLVESGGGLVQAGGSLRLSCAAAGYTLGVNAMGWSRQAPGKERELVAAINYIDTRTYYAASVKGRFTISRDNAKNTVYLQMNSLNPEDTAVYYCAARPYVPWVKRYYYWGQGTQVTVSS | low polyreactivity |
| QVQLVESGRGLVQEGGSLRLSCAPSGLIFRYYAMGWYRQAPGKEREFVAAISGRGASTYYADSVKGRFTISRDNAKITGYLQMNSLTPEDTAVYYCATYFPSAVVAFHMDYWGQGTQVTVSS | high polyreactivity |
| QVQLEESGGGLVQAGGSLRLSCAASGSIFDPNAMGWYRKAPGKERELVADIDSSDGSTYYADSVKGRFTISRDNAKNTVYLQMNSLKPEDTAVYYCNARYGGWVWSTYDHWGQGTQVTVSS | low polyreactivity |
| QVQLVESGAGLVQAAGSLRLSCAASVSTFYTYAMGRYRQAPGKERELVADIRWRGGSTNYADSVKGRFTISRDNAKNTVYLQMNSLTSEDTAVYYCALRYYYYGASYYYWGHGTQVTVSS | high polyreactivity |
| QVQLVESGGGLVQAGGSLRLNCAASGGIFAYNAMGWYRQAPGKEMELVAAITYGGGSTYYADSVKGRFTISRDNAKNTVYLQMNSLKPEDTAVYYCATRGHYHAFYYTYPRYDSWGQGTQVTVSS | low polyreactivity |
| QVQLVESGGGLVQAGGSLRLSCAASGYTFRAYVMGRYRQAPGKEREMVAGITRRGGTTYYADSVKGRFTISRDYAKNTVYLQMNSLKPEDTAVYYCTAVFRSGSIPYVSWGQGTQVTVSS | high polyreactivity |
| QVQLVESGGGLVQAGGSLRLSCAASGSIFGKYTMGWYRQAPGKEREFVAAITSVGSTNYADSVKVRFTISRDNAKNTVYLQMNSLKPVDTAVYYCAADTIGYHYWYDYWGQGTQVTVSS | low polyreactivity |
| QVQLVESGGGLVQAGGSLRLSCAASGFTFRRNTMGWYRQEPGKERELVAAITQRGGSTYYADSVKGRFTISRDNAKNTVYLQMNSLKPEDTAVYYCAVERHSYIYKYDYWGQGTQVTVSS | high polyreactivity |
| QVQLVESGGGLVQAGGSLRLSCAAYGRIFTSYVMGWYRQAPGKERELVAGINSGRRTNYADSVKGRFTISRDNAKNTVYLQMNSLKPEDTAVYYCAKAGYWYKAHYYWGQGTQVTVSS | high polyreactivity |
| QVQLVESGGGLVQAGGSLRLSCAASGRTFRWYAMGWDRQAPGKERELVAAISQSGGSTYYADSVKGRFTISRDNAKNTVYLQMNSLKPEDTAVYYCNAYPPYGGYAYGRGDYWGQGTQVTVSS | high polyreactivity |
| QVQLEESGGGLVQAGGSLRLSCAASGSTFYRYAMGCYRQAPGKERELVAAMSRGGGRTNYADSVKGRFTISRDNAKNTVYLQMNSLKPEDTAVYYGAAYTYSFRANHDYWGQGTQVTVSS | high polyreactivity |
| QVQLVESGGGLVQAGGSLRLSCAASGFTFGSNTMGWYRQAPGKERELVAAITTSGDSTYYADSVKGRFTISRDNAKNTVYLQMNCLKPEDTAVYYCAAERRYGRYYRLVRLLGQGTQVTVSS | high polyreactivity |
| QVQLVESGGGLVQAGGSLRLRCAASGLTFVYYAMGWYRQAPVKERELVAAITSGGSTYYADSVKGRFTISRDNAKNTVYLQMNSLKPEDTAVYYCAATYPGFYFLLDEYWGQGTQVTVSS | high polyreactivity |
| QVQLVESGGGLVQAGGSLRLSCSASGSTFYRKTMGWYRQAPGKERELVAAISSGGGTKYADSVKGRFTISRDNAKNTVYLQMNSLKPEDTAVYYCAAVYYTLGYAYYPYIYYYWGQGTQVTVSS | high polyreactivity |
| QVQLVESGGGLVQAGGSLRLSCAASGRIFTKNAMGWYRQAPGKERELVAAISWSTSRTYYADSVKGRFTISRDNAKNTVYLQMNSLKPEDTAVYYCAAVYRLRGAFSRGYWGQGTQVTVSS | high polyreactivity |
| QVQLVESGGGLVQAGGSLRLSCAASGIIIGANAMGWYRQAPWKERELLAAITSGGSTYYADSVKGRFTISRDNAKNTVYLQMNSLKPEDTAVYYCAADVFWLYSFTIYDYWGQGTQVTVSS | high polyreactivity |
| QVQLVESGGALVQAGGSLRLSCAASGRTFGVYAMGWYRQAPGKERELVAAISRRAGNTYYADSVKGRFTISRDNAKNTVYLQMNSLKTEDTAVYYCAADFSRQYGYWGQGTQVTVSS | high polyreactivity |
| QVQLVESGGGLVQAGGSLRLSCAASGGTFYYYAMGWYRQAPGKEREFVAAITWTGGRTYYADSVKGRFTISRDNAKNTVYLQMNSLKPEDTAVYYCAASDRYGGRDYWGQGTQVTVSS | high polyreactivity |
